Laboratory results as given in paper PMC2999418, “Biological Activity and Binding Site Characteristics of the PA1b Entomotoxin on Insects from Different Orders” (Journal of Insect Science, 2007).

How the values were obtained:
pronase E type XIV = test: PA1b degradation assay with commercial protease; assay type: in vitro ADME; conditions: 10 µg pronase E, 37°C, one night incubation, C18 HPLC
Procedure: PA1b degradation assays were performed using 10 µg of peptide (PA1b isoform mixture) in a final volume of 100 µl buffer. Assays with commercially (SIGMA, www.sigmaaldrich.com) available enzymes were performed in Glycine-NaOH buffer (20 mM pH 9) at 3O°C for proteinase K (E.C. 3.4.21.64), Tris-HCl buffer (20 mM pH 7.5) + EDTA 10 mM at 37°C for pronase E type XIV, MES-NaOH buffer (20 mM pH 6.2) at 25°C for papain (E.C. 3.4.22.2), Tris-HCl buffer (20 mM pH 7.8) at 25°C for chymotrypsin (E.C. 3.4.21.1), and Tris-HCl buffer (20 mM pH 7.6) at 25°C for trypsin (E.C. 3.4.21.4). Assays were done with 10 µg of each enzyme, and control assays were performed with 10 µg of enzymes denaturated by 10 min boiling. Assays with insect extracts were carried out in 20 mM buffers from pH 3 to 9 (Glycine-HCl, pH 3; sodium acetate pH 4-5; MES-NaOH pH 6; Tris-HCl pH 7-8; Glycine NaOH pH 9) at 3O°C. […]
For all assays, after a one night incubation, 150 µl of methanol were added to the mixture and incubated for 60 min at 4°C. […] PA1b peptide isoforms were detected by their absorbance at 210 nm, quantified by the measurement of the peak area and with reference to known quantities of pure peptide isoform used as standards.

[1] = tested on: midgut extracts from sensitive or resistant S. oryzae; conditions: ref Delobel and Rahbé, personnal communication; cited from earlier work
From the text: Stating that the binding activity is widely present, while the toxicity is not, directly implies that other factors strongly influence the toxin toxicity. Pre-binding effects, such as toxin stability in the insect digestive tract, have been commonly described, either for bacterial toxins ([Keller et al. 1996]) or enzyme inhibitors ([Girard et al. 1998]). Although the structural features of PA1b, such as its cystine-knot core ([Jouvensal et al. 2003]), are known to confer high thermal, chemical and proteolytic stability ([Delobel et al. 1998]) the latter point was investigated using commercial ...

Tribolium castaneum = test: Red flour beetle adult toxicity test, toxin mixed into diet; assay type: in vivo; conditions: 1000 µg per g of food, feeding for 15 days
Procedure: The red flour beetle Tribolium castaneum (Coleoptera), was provided by François Bonneton (Centre de Génétique Moléculaire Cellulaire, Lyon, France). Tests were performed on adults by mixing the toxin into the diet (wheat flour 95%, yeast extract 5%).
All toxicity assays were carried out using a mixture of PA1b isoforms (98% purity by HPLC). All tests were performed on at least 30 insects for assays and for control test (without toxin), except for the three aphid species (50 insects) and for Trichogramma (more than 300 eggs by assays). When adults were used, the insects were synchronized at the imaginal molt. The statistical analyses were performed using the JMP software (SAS, Grégy-sur-Yerres FRA).

In the case of “ASCNGVCSPFEMPPCGTSACRCIPVGLVIGYCR NPSG (bicyclic or more) [PA1b, plant peptide of 37 amino acids purified from pea (Pisum sativum) seeds; entomotoxic cystine-knot peptide with three disulfide bonds]”, the “PA1b recovered after pronase E treatment, relative to control” value (pronase E type XIV; 10 µg PA1b, Tris-HCl pH 7.5 + EDTA 10 mM) is listed as 20 % of the control, the “Recovered PA1b, Assays” value (pronase E type XIV; 10 µg PA1b isoform mixture in 100 µl Tris-HCl 20 mM pH 7.5 + EDTA 10 mM, UV 210 nm, mean of triplicates) is listed as 1.7 µg and the “activity of midgut extracts on PA1b” value [1] is listed as “do not show any activities on PA1b”. For the same sequence, the effects on adults (Tribolium castaneum) was “no effects were detectable” and the survival of adults (Tribolium castaneum) was “all insects survived”.
